Source: patent US20260139017A1, “COMPOSITIONS AND METHODS USING REELIN IN ALZHEIMER'S DISEASE” (The General Hospital Corporation, priority 2022, published 2026)
“Also recorded” adds a separate entry of the source.

Assays:
total DAB1 = test: Overexpression of mini-RELN constructs in HRECs, total DAB1 western blot; assay type: cell-based, human; conditions: 24 h overexpression in HRECs
Protocol: For in vitro overexpression, the HRECs were cultured in EBM-2 media enriched with EGM-2 Single Quots (Lonza) at 37° C. and 5% CO2 and experimentally tested at passage 7. 24 h prior experiment, cells were plated on a 6-well plate at 500,000 cells/mL. The cell transfection of plasmids was done with Lipofectamine 2000 (5 μL, Life technologies) according to the manufacturer. In detail, one day prior to transfection, cells were seeded to be 70% confluent at moment of transfection. The day of transfection lipofectamine was diluted and incubated for 10 minutes at room temperature, to allow the formation of the lipophilic complex. Subsequently, each plasmid (1 μg, Invivogen) was added to the lipid complex of Lipofectamine and incubated for 10 minutes. We used OPTIMEM media (Gibco) to block the transfection after 5 hours, to allow cells to recover and facilitate replication. Prior 5 h and 24 h post-transfection, cells were imaged using 10× magnification light microscope (Olympus CKX53).
24 h post-transfection, cells were harvested for western blotting analysis. Total protein levels were quantified via BCA assay. […] We detected β-actin (1:5000, mouse, #66009-1-Ig, Proteintech), and total DAB1(1:100, SC-red tube; sc-271136 Dab1 (G-5), Santa Cruz). […] To quantify the results, each band was quantified using ImageJ and data expressed as DAB1:β-actin ratio normalized to the control. […]

pDAB1 (Tyr232) = test: HRECs treated 5 minutes with recombinant mini-RELN, pDAB1 western blot; assay type: cell-based, human; conditions: for pDAB1 levels: 5 minutes, 4 ug/mL recombinant protein
Protocol: For in vitro screening of constructs using recombinant mini-RELN on HRECs, the cells were cultured in EBM-2 media enriched with EGM-2 Single Quots (Lonza) at 37° C. and 5% CO2 and experimentally tested at passage 7. 24 h prior experiment, cells were plated on a 6-well plate at 500,000 cells/mL. Two hours before the experiment, the cells were washed with PBS to remove residual growth media and then incubated with a starving media including EBM-2, 1% GlutaMax+0.2% Normicin. Treatments was conducted using recombinant mini RELN constructs obtained from Innovagen and Recombinant Mouse Reelin Protein from R&D systems (3820-MR-025/CF). Each treatment was incubated for 5 minutes at 4 ug/mL concentration and cells were subsequently harvested in lysis buffer was applied constituted of RIPA (Cell signaling), proteases inhibitors (cOmplete™, Mini, EDTA-free Protease Inhibitor Cocktail, Roche), phosphatases inhibitors (PhosSTOP, Roche), 1 μL of proteasome inhibitor MG-132 10 mM, 1% Triton X 100. The lysates were scraped and centrifugated at 15000 rpm for 10 minutes at 4° C. Total protein levels were quantified via BCA assay. For Western Blotting, 3.5 ug protein homogenates were prepared under reducing and denaturing conditions using Laemmli buffer enriched with 10 mM DTT and 5 min boiling. Samples were electrophoretically separated in a 4-20% Gel at 90V and protein transferred to a PVDF membrane using iBlot™ 2 Dry Blotting System. The membrane was blocked using Intercept® (TBS) Blocking Buffer for 2 hours. We detected pDAB1 (Tyr232; 1:1000, rabbit, #3325 Cell signaling), and total protein staining (Licor). Antibodies were diluted using Intercept® (TBS) Blocking Buffer and incubated overnight at 4C under gentle shaking. Prior secondary antibody incubation, membranes were washed 2 times using TBS-T for 10 minutes. As secondary antibodies we used IR Dye 800n CW Goat-anti-Rabbit (925-32211, Licor) diluted 1:10000 in blocking buffer for 1 h at room temperature under gentle shaking. Membranes were washed three times with TBST-T prior IR detection using Odyssey imager. To quantify the results, each band was quantified using ImageJ and data expressed as pDABL:total protein ratio normalized to the control.

pDAB1 [1] = test: Trans-nasal (MIND) delivery of mini-RELN in mice, brain pDAB1 western blot; assay type: in vivo
From the text: (§1) We used a MIND procure (trans nasal delivery using Minimally Invasive Nasal Depot (MIND), Padmakumar et al., J Control Release. 2021 Mar. 10; 331: 176-186) or intraperitoneal injection to administer miniRELN constructs into mice. MIND leverages the olfactory nerve to bypass the blood brain barrier. […] Using the MIND methodology provides one method of reaching the entorhinal cortex with minimal systemic exposure. […] (Jackson Laboratory) were housed under regular light/night cycle. All procedures were conducted under approved IACUC animal protocols. Prior to incision, the nasal region was shaved and cleaned using betadine and 70% alcohol and mouse subcutaneously injected with buprenorphine HCl and meloxicam (5 mg/kg). The nasal cavity was then opened using a scalped and nasal mucosa exposed using a microdrill. Once the mucosa was exposed, gel dispersion of either PBS or mini-RELN constructs (Innovagen) in 20% Pluronic (Sigma Aldrich) was subcutaneously delivered in the surgically-generated pocket. Mice were injected with meloxicam for 3 days prior euthanasia at day 4 to collect the brain tissue used for post-mortem analysis.
Western blotting was performed as follows. 20 ug protein homogenates were prepared under reducing and denaturing conditions using Laemmli buffer enriched with 10 mM DTT and 5 min boiling. Samples were electrophoretically separated in a 4-20% Gel at 90V and protein transferred to a PVDF membrane using iBlot™ 2 Dry Blotting System. The membrane was blocked using Intercept® (TBS) Blocking Buffer for 2 hours. We detected pDAB1 (Tyr232; 1:1000, rabbit, #3325 Cell signaling), and Beta actin (1:5000, mouse, #66009-1-Ig, Proteintech). Antibodies were diluted using Intercept® (TBS) Blocking Buffer and incubated overnight at 4C under gentle shaking. Prior secondary antibody incubation, membranes were washes 2 times using TBS-T for 10 minutes. As secondary antibodies we used IR Dye 800n CW Goat-anti-Rabbit (925-32211, Licor) and IR Dye 680 CW Goat-anti-Mouse (925-68070, Licor) both diluted 1:10000 in blocking buffer for 1 h at room temperature under gentle shaking. Membranes were washed three times with TBS-T prior IR detection using Odyssey imager. To quantify the results, each band was quantified using ImageJ and data expressed as pDAB1:βActin ratio normalized to the control.

[2] = Anti human IgG-Fc ELISA of hippocampus after trans-nasal mini-RELN; assay type: in vivo, mice; conditions: 72 h post injection, vs PBS vehicle
From the text: as §1

pDAB1 [3] = test: Immunofluorescence of cleared brain sections (Fc tag, pDAB1) after MIND delivery; assay type: in vivo, mice
Protocol: 24 or 72 hours after Mini Reelin (225S) or vehicle administration, mice were intracardially perfused with 4% PFA in PBS and brains were harvested and incubated in 4% PFA at 4° C. for 24 hours. Sagittal sections were obtained at 1 mm thickness using a stainless-steel brain matrix. The entorhinal-hippocampal section of each brain was chosen for Clarity using Binaree® Tissue Clearing™ Kit (HRTC-012) following the kit guidelines. Sections were incubated with IgG-Fc tag and pDAB1 primary antibodies for 72 h followed by secondary antibody: Alexa 488 and Alexa 647, and DAPI for 1 h. Subsequently, sections were imaged using confocal SP8 microscope for quantification. […] This is proof of effective drug delivery, target engagement, and targeted RELN signaling activation, in the hippocampal formation.

[4] = WT male mice, 72 h post-trans-nasal delivery

B1: 6xHISCR-50-R5-6-CtermH3447R (protein)
chain: MYRMQLLSCIALSLALVTNSGGHHHHHHGGEQCGAIMHGNAVTFCEPYGPRELITTGLNTTTASVLQFSIGSGSCRFSYSDPSIIVLYAKNNSADWIQLEKIRAPSNVSTIIHILYLPEDAKGENVQFQWKQENLRVGEVYEACWALGSRGGQTNATRFRLWQPYNNGKKEEIWIVDDFIIDGNNVNNPVMLLDTFDFGPREDNWFFYPGGNIGLYCPYSSKGAPEEDSAMVFVSNEVGEHSITTRDLNVNENTIIQFEINVGCSTDSSSADPVRLEFSRDFGATWHLLLPLCYHSSSHVSSLCSTEHHPSSTYYAGTMQGWRREVVHFGKLHLCGSVRFRWYQGFYPAGSQPVTWAIDNVYIGPQCEEMCNGQGSCINGTKCICDPGYSGPTCKISTKNPDFLKDDFEGQLESDRFLLMSGGKPSRKCGILSSGNNLFFNEDGLRMLMTRDLDLSHARFVQFFMRLGCGKGVPDPRSQPVLLQYSLNGGLSWSLLQEFLFSNSSNVGRYIALEIPLKARSGSTRLRWWQPSENGHFYSPWVIDQILIGGNISGNMVLEDDFTTLDSRKWLLHPGGTKMPVCGSTGDALVFIEKASTRYVVSTDVAVNEDSFLQIDFAVSCSVTDSCYAIELEYSVDLGLSWHPLVRDCLPTNVECSRYHLQRILVSDTFNKWTRITLPLPPYTRSQATRFRWHQPAPFDKQQTWAIDNVYIGDGCIDMCSGHGRCIQGNCVCDEQWGGLYCDDPETSLPTQLKDNFNRAPSSQNWLTVNGGKLSTVCGAVASGMALHFSGGCSRLLVTVDLNLTNAEFIQFYFMYGCLITPNNRNQGVLLEYSVNGGITWNLLMEIFYDQYSKPGFVNILLPPDAKEIATRFRWWQPRHDGLDQNDWAIDNVLISGSASTRKQNYMMNFSRQHGLRRFYNRRRRSLRRYP
total DAB1 levels normalized to β-actin and lipofectamine control (total DAB1): the most active | efficacy at RELN signaling (pDAB1) relative to comparators (pDAB1 (Tyr232); 5 minutes treatment): more effective than commercially available positive control; also recorded: more effective at triggering signaling compared to full-length RELN WT and full-length RELN COLBOS | pDAB1 levels (pDAB1 (Tyr232)): increased pDAB1 levels | pDAB1 levels in the hippocampus (pDAB1 [1]; [4]): increased | pDAB1 levels in the midbrain (pDAB1 [1]; [4]): increased

B2: FcIgG-RAP-CTRH3447R (protein)
chain: MYRMQLLSCIALSLALVTNSAPLERKSSVECPPCPAPPVAGPSVFLFPPKPKDTLMISRTPEVTCVVVDVSHEDPEVQFNWYVDGVEVHNAKTKPREEQFNSTFRVVSVLTVVHQDWLNGKEYKCKVSNKGLPAPIEKTISKTKGQPREPQVYTLPPSREEMTKNQVSLTCLVKGFYPSDIAVEWESNGQPENNYKTTPPMLDSDGSFFLYSKLTVDKSRWQQGNVFSCSVMHEALHNHYTQKSLSLSPGARTGGGGSGGGGSMAPRRVRSFLRGLPALLLLLLFLGPWPAASHGGKYSREKNQPKPSPKRESGEEFRMEKLNQLWEKAQRLHLPPVRLAELHADLKIQERDELAWKKLKLDGLDEDGEKEARLIRNLNVILAKYGLDGKKDARQVTSNSLSGTQEDGLDDPRLEKLWHKAKTSGKFSGEELDKLWREFLHHKEKVHEYNVLLETLSRTEEIHENVISPSDLSDIKGSVLHSRHTELKEKLRSINQGLDRLRRVSHQGYSTEAEFEEPRVIDLWDLAQSANLTDKELEAFREELKHFEAKIEKHNHYQKQLEIAHEKLRHAESVGDGERVSRSREKHALLEGRTKELGYTVKKHLQDLSGRISRARHNELTGGSGGSTRKQNYMMNFSRQHGLRRFYNRRRRSLRRYP
pDAB1 levels (pDAB1 (Tyr232)): increased pDAB1 levels | pDAB1 levels in the entorhinal cortex (pDAB1 [1]; Tau P301S mice, 72 h post-trans nasal delivery, vs PBS): increased | anti human IgG-Fc ELISA optical density in the hippocampus [2]: trended to be increased | presence of peptide in the brain (Fc immunofluorescence) (pDAB1 [3]; entorhinal-hippocampal section, 24 or 72 hours after MIND): presence of the miniRELN peptide in the brain | RELN signaling measured via pDab1 (immunofluorescence) (pDAB1 [3]; wildtype animals, trans nasal, 24 hours, vs pluronic vehicle): increased levels of RELN signaling
